{"source": "paper PMC6327479", "test_system": "T1, HicB-6His (Sinorhizobium meliloti), ORF:5e3b9e2c", "T1 sequence": "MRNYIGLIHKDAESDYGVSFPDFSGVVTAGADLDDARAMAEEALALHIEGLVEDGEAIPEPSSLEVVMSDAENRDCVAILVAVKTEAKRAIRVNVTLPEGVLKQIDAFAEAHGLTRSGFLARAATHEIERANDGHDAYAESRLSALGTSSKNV", "assay": "EMSA", "settings": "EMSA: 10 mM Tris-HCl pH 7.5, 50 mM NaCl, 1 mM DTT, 300 ug/ml BSA, 20 ul, 30 min at 25 C; 5% native PAGE in TAE pH 7.5"}
{"sequence": "GATCCGACGGTTCGAGACCATCCGAGAAAGCCGCCTTAGATTGGCTTGACAAATTCATTGGACGAATACACATGCGTGTGTATTGTCGTATCAGATGAAGAGCGGCGACATTATTGCAGCATTGCAGAAGGACGGATGGTACGAGGTTGCGACCAAGGGCAGCCACGTTCAATTCAAACATCCGAAAAAGCACGGCCGGGTTACCGTTCCTCACCCGAAGA (double strand) [hicAB promoter fragment]", "values": [{"measurement": "binding", "value": "binds"}]}
